In publication PMC2779236 (The Journal of Cell Biology, 2009):
Where two headings read alike, the source gives them in different places.

T1: rat CEACAM1 D(1–4)-Fc fusion protein (rat, UniProt P16573 35-425)
T1 sequence (looked up): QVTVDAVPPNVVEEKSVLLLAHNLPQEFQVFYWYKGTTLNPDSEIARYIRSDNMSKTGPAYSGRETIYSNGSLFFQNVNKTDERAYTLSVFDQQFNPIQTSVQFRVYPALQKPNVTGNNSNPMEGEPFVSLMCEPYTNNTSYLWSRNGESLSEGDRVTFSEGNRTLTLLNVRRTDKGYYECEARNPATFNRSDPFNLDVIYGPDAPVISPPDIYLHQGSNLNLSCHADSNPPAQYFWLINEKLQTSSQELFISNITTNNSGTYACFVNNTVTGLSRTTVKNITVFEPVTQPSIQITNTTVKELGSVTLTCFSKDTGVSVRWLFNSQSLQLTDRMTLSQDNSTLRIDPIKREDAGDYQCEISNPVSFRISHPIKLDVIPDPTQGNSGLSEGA


Columns and labels:
[1] = biological target: rat CEACAM1 D(2–4)-His ectodomain (rat); assay: cross-linking
[2] = biological target: the molecule itself; assay: molecular electron tomography
[3] = biological target: the molecule itself; assay: molecular electron tomography; remark: listed apart in the source
[4] = biological target: T1, rat CEACAM1 D(1–4)-Fc fusion protein; assay: SPR

fold lower percentage of cross-linked dimers than D(1–4) [1]	Kd [4]	koff [4]	kon [4]	Molecule	KD monomer/A-dimer [2]	KD monomer/C-dimer [2]	KD monomer/A-dimer [3]	KD monomer/C-dimer [3]
4 fold lower				rat CEACAM1 D(2–4)-His ectodomain (domain or fragment)				
	11.2 µM	0.508 ± 0.0078 s⁻¹	45300 ± 3600 M⁻¹ s⁻¹	rat CEACAM1 D(1–4)-His ectodomain (domain or fragment, UniProt P16573 35-425, looked up, glycosylated (polydisperse, varying degrees of glycosylation; average molecular mass 81 kD)) QVTVDAVPPNVVEEKSVLLLAHNLPQEFQVFYWYKGTTLNPDSEIARYIRSDNMSKTGPAYSGRETIYSNGSLFFQNVNKTDERAYTLSVFDQQFNPIQTSVQFRVYPALQKPNVTGNNSNPMEGEPFVSLMCEPYTNNTSYLWSRNGESLSEGDRVTFSEGNRTLTLLNVRRTDKGYYECEARNPATFNRSDPFNLDVIYGPDAPVISPPDIYLHQGSNLNLSCHADSNPPAQYFWLINEKLQTSSQELFISNITTNNSGTYACFVNNTVTGLSRTTVKNITVFEPVTQPSIQITNTTVKELGSVTLTCFSKDTGVSVRWLFNSQSLQLTDRMTLSQDNSTLRIDPIKREDAGDYQCEISNPVSFRISHPIKLDVIPDPTQGNSGLSEGA	260 µM	72.1 µM	113 µM	43.8 µM
